Measurements: PMC5507214

Key:
RNaseH1 D210N = biological target: T1, RNaseH1 D210N (Homo sapiens, UniProt O60930 27-286, D210N); test: EMSA
T1 sequence: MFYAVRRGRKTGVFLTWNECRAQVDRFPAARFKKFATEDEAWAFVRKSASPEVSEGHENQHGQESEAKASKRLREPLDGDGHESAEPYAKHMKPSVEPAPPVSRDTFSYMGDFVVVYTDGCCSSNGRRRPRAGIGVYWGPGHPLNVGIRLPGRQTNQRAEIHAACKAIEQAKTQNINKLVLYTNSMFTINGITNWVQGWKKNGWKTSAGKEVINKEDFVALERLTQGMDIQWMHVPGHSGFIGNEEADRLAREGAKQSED

RNaseH1 D210N;RPA = RNaseH1 D210N;RPA (Homo sapiens;Homo sapiens, UniProt O60930;P27694;P15927;P35244 27-286;1-616;1-270;1-121, D210N|); test: EMSA
Sequence of RNaseH1 D210N;RPA (P27694 whole entry, chain 2 of 3): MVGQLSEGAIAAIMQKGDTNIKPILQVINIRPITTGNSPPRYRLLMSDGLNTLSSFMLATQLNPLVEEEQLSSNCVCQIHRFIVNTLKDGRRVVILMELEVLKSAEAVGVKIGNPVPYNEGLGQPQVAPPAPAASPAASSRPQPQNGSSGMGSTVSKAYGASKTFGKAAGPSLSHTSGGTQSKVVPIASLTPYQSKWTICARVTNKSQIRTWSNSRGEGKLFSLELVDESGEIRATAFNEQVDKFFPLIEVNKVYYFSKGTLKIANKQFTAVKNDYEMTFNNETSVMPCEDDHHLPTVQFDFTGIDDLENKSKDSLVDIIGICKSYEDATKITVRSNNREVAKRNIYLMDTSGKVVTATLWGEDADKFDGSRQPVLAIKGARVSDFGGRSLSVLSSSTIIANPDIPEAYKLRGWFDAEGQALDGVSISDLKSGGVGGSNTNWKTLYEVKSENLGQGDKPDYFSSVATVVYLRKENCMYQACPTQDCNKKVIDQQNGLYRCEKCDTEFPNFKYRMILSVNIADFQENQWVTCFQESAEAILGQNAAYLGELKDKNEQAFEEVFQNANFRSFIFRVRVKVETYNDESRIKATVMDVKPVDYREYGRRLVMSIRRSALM
Sequence of RNaseH1 D210N;RPA (P15927 whole entry, chain 3 of 3): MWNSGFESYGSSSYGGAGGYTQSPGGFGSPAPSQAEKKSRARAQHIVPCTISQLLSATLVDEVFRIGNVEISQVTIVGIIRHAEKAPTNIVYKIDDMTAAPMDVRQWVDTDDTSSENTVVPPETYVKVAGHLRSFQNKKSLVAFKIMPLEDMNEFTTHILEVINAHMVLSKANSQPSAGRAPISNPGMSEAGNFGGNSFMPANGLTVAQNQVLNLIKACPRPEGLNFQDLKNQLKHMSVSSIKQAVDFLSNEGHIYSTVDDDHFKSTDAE
Sequence of RNaseH1 D210N;RPA (P35244 whole entry, chain 4 of 3): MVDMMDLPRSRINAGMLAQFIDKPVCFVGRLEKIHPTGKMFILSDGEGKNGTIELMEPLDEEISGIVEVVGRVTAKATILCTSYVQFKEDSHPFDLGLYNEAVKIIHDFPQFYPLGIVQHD

B1: R:D (25-bp RNA:DNA hybrid) (DNA:RNA)
RNA: GCAGCUGGCACGACAGGUAUGAAUC
DNA: GATTCATACCTGTCGTGCCAGCTGC
binding result (RNaseH1 D210N): binds
binding result (RNaseH1 D210N;RPA): binds
